In the supplement of paper PMC9170038:

Test system: MS2 coat protein
Test: apparent KD of MS2 coat protein; designed switch direction (-1 OFF switch, 1 ON switch): 1; higher = weaker reporter binding
Procedure, shortened: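 Stalled E. coli RNA polymerase transcribed designed RNA switches on Illumina chips, which were then titrated with SNAP-549-labelled MS2 coat protein, doubling from 0.7 or 1.5 nM to 3 µM. Steps lasted from 0.8–1.5 h at the lowest concentration to 10–20 min at the highest. The apparent KD is each design's median over clusters of curve-fitted normalised fluorescence.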

[1] = input ligand: microRNA oligo, concentration not stated
[2] = Eterna round: R95, input ligand: FMN 200 uM
[3] = Eterna round: R95, input ligand: microRNA oligo, concentration not stated
[4] = Eterna round: R95, input ligand: none

Row | Sequence | apparent KD of MS2 coat protein (input ligand: FMN 200 uM) | apparent KD of MS2 coat protein [1] | apparent KD of MS2 coat protein (input ligand: none) | apparent KD of MS2 coat protein [2] | apparent KD of MS2 coat protein [3] | apparent KD of MS2 coat protein [4]
1 | UUUAGAUUCAGAGGAUAUUGAUGUUGUAAGUAACAAGAAGGCUGAAUGGUUAGAAUUGUUUAUUAACAUGAGGAUCACCCAUGU [JR_SSNG1_Sub009] (Eterna round: R96, puzzle: Same State NG 1) | 17 nM | 17.1 nM | 20.8 nM |  |  | 
2 | GUGGUCAGACAUGAGGAUCACCCAUGUGGAAUAAAUAAGGAAAAGGAUAUCUAAUAUAGGAUAUAAGAGAAGGUUUGGUUGGUG (Eterna round: R96, puzzle: Same State NG 3) | 74.1 nM | 52.1 nM | 64.7 nM |  |  | 
3 | AUUUCAGUCAGAGGAUAUUGUUUAUCUCUAUUGCAAGAAGGCUGAUCUUACUACCCACUUAUGAAACAUGAGGAUCACCCAUGU [JR_SSNG1_Sub017] (Eterna round: R96, puzzle: Same State NG 1) |  | 15.7 nM |  |  |  | 
4 | AGUCCAGCCUGAGCUGGACAAAAGCAUGUACAUGAGGAUCACCCAUGUCAUGUACAAGCUUUUUGCUCGACUUAAAA [Mat - hsa-mir-208a - Mod of JL - D10] (puzzle: Sensor for hsa-mir-208a) |  |  |  | 569 nM | 14.2 nM | 624 nM
5 | UAGCGCUGUCGAGAGGAUAUGCGGUGAUGGACAUGAGGAUCACCCAUGUUAGCGAUAGCAUUACGGUAGAAGGCUCUACAGCUGC [salish99_ss2_r3_092] (puzzle: Same State 2) |  |  |  |  | 23.2 nM | 
6 | ACAUGAGGAGCAGGAUAUCGCAUGAGGAUCACCCGAGAAGGGCUCACACAUGAGGAUCACCCAUGUAUCACCCAUGUAUGUUGA [twils 1] (Eterna round: R96, puzzle: Same State NG 1) | 484 nM | 105 nM | 498 nM |  |  | 
7 | GUGCUCGUGUGAGGAUAUGCGGCCGGGUCGGCUGCAGAAGGUACUAUUAUACAUGAGGAUCACCCAUGUCGCUUUUCUCCGGUG [salish99_SSNG1_r04_919] (Eterna round: R96, puzzle: Same State NG 1) | 62.5 nM | 41.2 nM | 49 nM |  |  | 
8 | AAAGGAUGAUGUUACAUGAGGAUCACCCAUGUUGUGAUAACUAAGGAUAUGUGUUUAACCAGUUAAUAGAAGGUAGGAUCAUAA [AK SSNG3-V2-4] (Eterna round: R96, puzzle: Same State NG 3) | 168 nM | 97.4 nM | 124 nM |  |  | 
9 | AGAUCAUGACGAGGAUAUCCGACAUGAGGAUCACCCAUGUAUGUCGGAGGACGAAUACGUCCAAAGGAGAAGGCGUCGUGGUCA [Mat - Same State NG 2 - JL mod - D38] (Eterna round: R96, puzzle: Same State NG 2) | 25.2 nM | 62.9 nM | 85.4 nM |  |  | 
10 | UUAGAAUUGCAAGGAUAUCUAAUUUAGAUAGUAAGAGAAGGUGCUUUAUAGUUACAUGAGGAUCACCCAUGUUUUUUUGUUUAU [JR_SSNG1_Sub059] (Eterna round: R96, puzzle: Same State NG 1) |  | 26.5 nM |  |  |  | 
11 | GUGGUGUAGAUACAGGAUAUGUUGCUCGUAACAUGAGGAUCACCCAUGUAUAUAUGAGAUUAAAUGCAGAAGGGUGCACACCACG [Mat - Same State 2 - Mod of UCT - D76] (puzzle: Same State 2) |  |  |  | 24.6 nM | 18.9 nM | 13.3 nM
12 | UGAACCGUCACAGGAUAUCAUGCGAAAAUUGCGUGAGAAGGGUGGAUGUUGUGCUCAAAGUUAUACAUGAGGAUCACCCAUGUU [SameState NG1 #45] (Eterna round: R96, puzzle: Same State NG 1) | 133 nM | 188 nM | 285 nM |  |  | 
13 | AGUCCAGCCUGAGCUGGACAAAAGCAUGUACAUGAGGAUCACCCAUGUCAUGUACAGGCUUUUUGCUCGUCUUAAAA [Zipper 46 - 8] (puzzle: Sensor for hsa-mir-208a) |  |  |  | 213 nM | 16.1 nM | 300 nM
